Holding throughout (assay): cell-based or functional assay
For test [1], the target named is HIV-1 Env of isolate MG RM-A-009 (pseudovirus) (HIV-1).
Test [2] concerns the target HIV-1 Env of isolate MGRM-G-009 (subtype G) (HIV-1).
Test [3] concerns the target HIV-1 Env of isolate 92UG024 (HIV-1).
Test [4] has as its target HIV-1 Env of isolate 92RW008 (subtype A) (HIV-1).
The target in test [5] is HIV-1 Env of pseudovirus isolate MGRM-Chronic-B-004 (clade B) (HIV-1).
Test [6] addresses HIV-1 Env of isolate MGRM-G-001 (subtype G) (HIV-1).
The target of test [7] is HIV-1 Env of isolate 98CN009 (HIV-1).
For test [8], the target named is HIV-1 Env of isolate MGRM-F1-010 (HIV-1).
Test [9] concerns the target HIV-1 Env of isolate MGRM-AG-006 (subtype AG) (HIV-1).
In test [10] the target is HIV-1 Env of pseudovirus isolate MGRM-C-006 (clade C) (HIV-1).
The target of test [11] is HIV-1 Env of isolate MGRM-AE-001 (subtype AE) (HIV-1).
The target in test [12] is HIV-1 Env of pseudovirus isolate MGRM-C-015 (clade C) (HIV-1).
The target of test [13] is HIV-1 Env of isolate MGRM-Chronic-B-002 (HIV-1).
In test [14] the target is HIV-1 Env of pseudovirus isolate MGRM-C-009 (clade C) (HIV-1).
The target of test [15] is HIV-1 Env of isolate MGRM-AE-003 (subtype AE) (HIV-1).
Test [16] addresses HIV-1 Env of isolate MGRM-C-004 (HIV-1).
The target in test [17] is HIV-1 Env of isolate MGRM-AE-007 (subtype AE) (HIV-1).
In test [18] the target is HIV-1 Env of pseudovirus isolate MGRM-C-026 (clade C) (HIV-1).
The target in test [19] is HIV-1 Env of isolate MGRM-F1-004 (HIV-1).
In test [20] the target is HIV-1 Env of isolate 92UG114 (pseudovirus) (HIV-1).
The target in test [21] is HIV-1 Env of isolate MGRM-D-005 (pseudovirus) (HIV-1).
Test [22] concerns the target HIV-1 Env of isolate MGRM-F1-013 (HIV-1).
The target in test [23] is HIV-1 Env of pseudovirus isolate MGRM-C-012 (clade C) (HIV-1).
The target of test [24] is HIV-1 Env of isolate MGRM-C-001 (HIV-1).
In test [25] the target is HIV-1 Env of isolate MGRM-A-002 (pseudovirus) (HIV-1).
The target in test [26] is HIV-1 envelope glycoprotein (Env) of isolate APV_17, on pseudovirus (HIV-1).
The target of test [27] is HIV-1 Env of isolate MGRM-AG-012 (pseudovirus) (HIV-1).
In test [28] the target is HIV-1 Env of isolate MGRM-AE-008 (pseudovirus) (HIV-1).
Test [29] concerns the target HIV-1 envelope glycoprotein (Env) of isolate TRJO4551.58, on pseudovirus (HIV-1).
In test [30] the target is HIV-1 MGRM-A-010 Env (HIV-1).
Test [31] deals with HIV-1 envelope glycoprotein (Env) of isolate 93IN905, on pseudovirus (HIV-1).
Test [32] addresses HIV-1 envelope glycoprotein (Env) of isolate MG RM-A-005, subtype A (HIV-1).
For test [33], the target named is HIV-1 Env of isolate 92RW026 (clade A pseudovirus) (HIV-1).
Test [34] deals with HIV-1 Env of pseudovirus MGRM-G-027 (HIV-1).
The target of test [35] is HIV-1 Env of isolate MGRM-D-026 (clade D pseudovirus) (HIV-1).
Test [36] has as its target HIV-1 JR-CSF Env L416A (HIV-1 (isolate JR-CSF)) (UniProt P20871).
The target in test [37] is HIV-1 JR-CSF Env W395A (HIV-1 (isolate JR-CSF)) (UniProt P20871).

From patent publication US20240132578A1 come the findings set out here.

Sequence of 4995_P16 (PGT-145) (antibody) (VH): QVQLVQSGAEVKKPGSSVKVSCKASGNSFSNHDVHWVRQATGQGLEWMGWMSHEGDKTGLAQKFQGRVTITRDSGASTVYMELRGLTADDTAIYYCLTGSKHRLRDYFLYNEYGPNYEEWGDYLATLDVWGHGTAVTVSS
Sequence of 4995_P16 (PGT-145) (antibody) (VL): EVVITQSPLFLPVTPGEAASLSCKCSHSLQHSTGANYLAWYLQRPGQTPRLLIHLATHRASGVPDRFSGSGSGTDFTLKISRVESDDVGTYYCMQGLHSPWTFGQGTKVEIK
Sequence of 4970_K22 (PGT-144) (antibody) (VH): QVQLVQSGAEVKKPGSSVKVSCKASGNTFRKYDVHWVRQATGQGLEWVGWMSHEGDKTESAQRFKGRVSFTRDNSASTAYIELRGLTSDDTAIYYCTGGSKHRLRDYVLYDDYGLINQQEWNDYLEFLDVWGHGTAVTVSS
Sequence of 4970_K22 (PGT-144) (antibody) (VL): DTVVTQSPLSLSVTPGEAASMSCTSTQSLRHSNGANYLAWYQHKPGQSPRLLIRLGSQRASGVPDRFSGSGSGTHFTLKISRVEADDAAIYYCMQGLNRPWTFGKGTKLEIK
Sequence of 4995_E20 (PGT-142) (antibody) (VH): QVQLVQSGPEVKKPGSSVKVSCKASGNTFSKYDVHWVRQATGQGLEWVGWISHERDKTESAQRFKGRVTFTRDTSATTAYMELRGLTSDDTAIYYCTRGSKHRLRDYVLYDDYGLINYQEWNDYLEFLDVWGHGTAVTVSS
Sequence of 4995_E20 (PGT-142) (antibody) (VL): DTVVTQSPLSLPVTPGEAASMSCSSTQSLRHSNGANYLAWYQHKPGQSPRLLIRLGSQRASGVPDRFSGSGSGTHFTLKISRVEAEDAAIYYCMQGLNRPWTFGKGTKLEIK
Sequence of 4993_K13 (PGT-141) (antibody) (VH): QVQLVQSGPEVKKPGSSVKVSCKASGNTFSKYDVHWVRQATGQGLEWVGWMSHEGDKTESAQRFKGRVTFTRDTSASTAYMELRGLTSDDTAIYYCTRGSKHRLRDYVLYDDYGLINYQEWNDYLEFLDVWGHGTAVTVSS

As for 4995_P16 (PGT-145) (antibody), the IC50 (µg/mL), single-round pseudovirus neutralization in test [1] was 0.235 µg/mL. In addition, the IC50 (µg/mL), pseudovirus neutralization is 0.982 µg/mL in [2], 1.6 µg/mL in test [3], 0.028 µg/mL in test [6] and 0.136 µg/mL in test [7]. For the same substance, the IC50, pseudovirus neutralization in [4] worked out at 0.4 µg/mL; in [5] it was 0.023 µg/mL.
In test [1], 4993_K13 (PGT-141) (antibody) returned an IC50 (µg/mL), single-round pseudovirus neutralization of 0.029 µg/mL. The IC50 (µg/mL), pseudovirus neutralization was 1.89 µg/mL in test [2], greater than 50 µg/mL in [3], 0.392 µg/mL in test [6] and 1.28 µg/mL in [7]. Moreover, the IC50, pseudovirus neutralization turned out to be 0.579 µg/mL in test [4] and 0.586 µg/mL in [5].
For 5329_C19 (PGT-136) (antibody), the IC50 (µg/mL), pseudovirus neutralization in test [8] was greater than 50 µg/mL; in test [13] it was greater than 50 µg/mL; in [16], 0.034 µg/mL; in test [19], greater than 50 µg/mL; in test [20] it was greater than 50 µg/mL; in [21], greater than 50 µg/mL. Besides, the IC50 (µg/mL), pseudovirus neutralization in test [22] is greater than 50 µg/mL; in [24], 7.52 µg/mL; in test [25], greater than 50 µg/mL. Besides, the IC50, pseudovirus neutralization was 29.1 µg/mL in test [9]; greater than 50 µg/mL in [10]; greater than 50 µg/mL in test [11]; 11.1 µg/mL in test [12]; greater than 50 µg/mL in test [14]; greater than 50 µg/mL in [15]. The IC50, pseudovirus neutralization in test [17] was greater than 50 µg/mL; in test [18] it was 0.006 µg/mL; in test [23], greater than 50 µg/mL.
Take 4877_D15 (PGT-122) (antibody): the IC50, pseudovirus neutralization is 0.25 µg/mL in test [26]; greater than 50 µg/mL in test [29]; 1.68 µg/mL in [30]; 0.013 µg/mL in [31]; greater than 50 µg/mL in [32]. For the same substance, the IC50 (µg/mL), pseudovirus neutralization in [27] and in test [28] was greater than 50 µg/mL in each case.
As to 1496_C09 (PG9) (TCN-109) (antibody), the IC50 (µg/ml), pseudovirus neutralization in [33] was 0.27 µg/mL; in test [34], 0.01 µg/mL. Moreover, the IC50 (µg/mL), pseudovirus neutralization in test [27] was 22.8 µg/mL; in [2], 10.7 µg/mL; in test [28], 31.5 µg/mL; in [6], 0.166 µg/mL. In addition, the IC50, pseudovirus neutralization came to 17.5 µg/mL in test [35] and 0.0375 µg/mL in test [30].
On to 5114_A19 (PGT-128) (antibody), for which the IC50 (µg/mL), pseudovirus neutralization in [8] worked out at 16.7 µg/mL; in test [13] it was 0.036 µg/mL; in test [16], 0.025 µg/mL; in test [19], 0.027 µg/mL; in test [20], 0.083 µg/mL; in test [21], 0.051 µg/mL. For the same substance, the values for the IC50 (µg/mL), pseudovirus neutralization in [22], in [24] and in test [25] were 12.7 µg/mL, greater than 50 µg/mL and 0.149 µg/mL, respectively. The IC50, pseudovirus neutralization in [9] was 0.009 µg/mL; in test [10], 0.014 µg/mL; in test [11], 0.069 µg/mL; in [12], 0.196 µg/mL; in test [14] it was greater than 50 µg/mL; in test [15] it was 0.18 µg/mL. The IC50, pseudovirus neutralization in test [17] is greater than 50 µg/mL; in test [18] it was 0.007 µg/mL; in test [23], 0.058 µg/mL. Further, the values for the Fold IC50 increase relative to wild-type (pseudovirus neutralization) in test [36] and in test [37] were 1.1 fold and 0.8 fold, respectively.
In the case of 4995_E20 (PGT-142) (antibody), in [1], the IC50 (µg/mL), single-round pseudovirus neutralization was 0.058 µg/mL. The IC50 (µg/mL), pseudovirus neutralization in [2] was 2.81 µg/mL; in test [3] it was greater than 50 µg/mL; in test [6], 0.362 µg/mL; in test [7] it was 4 µg/mL. Moreover, the IC50, pseudovirus neutralization in test [4] stood at 0.447 µg/mL; in test [5], 0.172 µg/mL.
As to PGV04 (antibody), the IC50 (µg/mL), pseudovirus neutralization in test [27] was 0.04 µg/mL; in test [2], 0.043 µg/mL; in test [28] it was 1.51 µg/mL; in test [6], greater than 50 µg/mL.
As for 5345_I01 (PGT-137) (antibody), the IC50 (µg/mL), pseudovirus neutralization in test [8] was greater than 50 µg/mL; in test [13], greater than 50 µg/mL; in [16], 0.026 µg/mL; in test [19], 40.3 µg/mL; in [20] it was greater than 50 µg/mL; in test [21], greater than 50 µg/mL. The IC50 (µg/mL), pseudovirus neutralization in [22] is greater than 50 µg/mL; in [24], 21.5 µg/mL; in test [25], greater than 50 µg/mL. The IC50, pseudovirus neutralization in test [9] is 28.3 µg/mL; in test [10], greater than 50 µg/mL; in [11] it was greater than 50 µg/mL; in [12], 1.98 µg/mL; in [14], greater than 50 µg/mL; in test [15], greater than 50 µg/mL. Besides, the IC50, pseudovirus neutralization in test [17] is greater than 50 µg/mL; in test [18], 0.011 µg/mL; in test [23], 0.102 µg/mL.
5136_H01 (PGT-131) (antibody): the IC50 (µg/mL), pseudovirus neutralization in test [8] is greater than 50 µg/mL; in [13], greater than 50 µg/mL; in test [16], 3.71 µg/mL; in [19], 0.114 µg/mL; in test [20], greater than 50 µg/mL; in test [21] it was greater than 50 µg/mL. The IC50 (µg/mL), pseudovirus neutralization in test [22], in test [24] and in test [25] was greater than 50 µg/mL each time. The IC50, pseudovirus neutralization in test [9] was 0.019 µg/mL; in test [10] it was 0.611 µg/mL; in [11] it was 4.8 µg/mL; in test [12], 1.01 µg/mL; in test [14], greater than 50 µg/mL; in [15], 1.41 µg/mL. In addition, the IC50, pseudovirus neutralization in test [17] is 0.026 µg/mL; in test [18] it was 1.67 µg/mL; in test [23] it was greater than 50 µg/mL. In addition, the Fold IC50 increase relative to wild-type (pseudovirus neutralization) in test [36] came out at 1 fold; in test [37] it was 0.5 fold.
As for 4970_K22 (PGT-144) (antibody), in test [1], the IC50 (µg/mL), single-round pseudovirus neutralization is 2.83 µg/mL. Also, the IC50 (µg/mL), pseudovirus neutralization in test [2], in test [3], in [6] and in test [7] was greater than 50 µg/mL in each case. In addition, the IC50, pseudovirus neutralization in [4] is greater than 50 µg/mL; in [5], 9.41 µg/mL.
Take 4838_L06 (PGT-121) (antibody): the IC50, pseudovirus neutralization is 0.066 µg/mL in [26], 7.09 µg/mL in [29], 0.005 µg/mL in test [31] and greater than 50 µg/mL in test [32].
